In PMC6289461, “Mek1 coordinates meiotic progression with DNA break repair by directly phosphorylating and inhibiting the yeast pachytene exit regulator Ndt80”:

Molecular target: T1, 6xHis-Ndt80 5D DBD (Saccharomyces cerevisiae, UniProt P38830 1-340, S24D;S205D;T211D;S327D;S329D)
T1 sequence: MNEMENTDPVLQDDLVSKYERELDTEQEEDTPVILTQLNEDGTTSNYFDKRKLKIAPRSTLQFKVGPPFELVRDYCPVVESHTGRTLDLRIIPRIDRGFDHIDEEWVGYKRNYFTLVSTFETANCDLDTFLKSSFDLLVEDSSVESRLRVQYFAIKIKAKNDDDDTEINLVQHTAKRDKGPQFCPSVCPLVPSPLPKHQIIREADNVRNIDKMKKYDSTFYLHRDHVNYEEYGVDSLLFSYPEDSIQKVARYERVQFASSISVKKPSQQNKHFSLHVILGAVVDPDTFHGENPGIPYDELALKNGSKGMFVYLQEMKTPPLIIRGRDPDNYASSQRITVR
Assay: EMSA; 50 nM DBD, 50 nM duplex; EMSA: 10 mM Tris-HCl pH 7.5, 40 mM NaCl, 4 mM MgCl2, 6% glycerol, 10 mg/ml BSA, 10 ug/ml sonicated salmon sperm DNA; 20 ul, room temperature, 30 min; 6% PAGE in 0.5X TBE
Details: protein: recombinant, tags: N-terminal 6xHis (pET-28a), blunt

B1: Cy5-Scr duplex (dsDNA)
DNA 1: ATTGACGCGGCTTCATCTCACGTATCATT
DNA 2: AATGATACGTGAGATGAAGCCGCGTCAAT
B1: no binding (label: 5' Cy5 on strand 1).

B2: Cy3-MSE (SPS4 MSE duplex) (dsDNA)
DNA 1: ATTGACGCGCGCCACAAAAACGTATCATT
DNA 2: AATGATACGTTTTTGTGGCGCGCGTCAAT
B2: no binding (label: 5' Cy3 on strand 1).
